From US20230265151A1, “GIP/GLP1 CO-AGONIST COMPOUNDS” (priority 2020, published 2023) come the findings set out here.

Assay in all cases: cell-based or functional assay
In experiment [1] the target is human glucagon-like peptide-1 (GLP-1) receptor (human, UniProt P43220 24-463).
The target of a further experiment is human glucagon receptor (human, UniProt P47871 26-477).
The target of experiment [2] is T1, human glucose-dependent insulinotropic polypeptide (GIP) receptor (human, UniProt P48546 22-466).
T1 sequence (looked up): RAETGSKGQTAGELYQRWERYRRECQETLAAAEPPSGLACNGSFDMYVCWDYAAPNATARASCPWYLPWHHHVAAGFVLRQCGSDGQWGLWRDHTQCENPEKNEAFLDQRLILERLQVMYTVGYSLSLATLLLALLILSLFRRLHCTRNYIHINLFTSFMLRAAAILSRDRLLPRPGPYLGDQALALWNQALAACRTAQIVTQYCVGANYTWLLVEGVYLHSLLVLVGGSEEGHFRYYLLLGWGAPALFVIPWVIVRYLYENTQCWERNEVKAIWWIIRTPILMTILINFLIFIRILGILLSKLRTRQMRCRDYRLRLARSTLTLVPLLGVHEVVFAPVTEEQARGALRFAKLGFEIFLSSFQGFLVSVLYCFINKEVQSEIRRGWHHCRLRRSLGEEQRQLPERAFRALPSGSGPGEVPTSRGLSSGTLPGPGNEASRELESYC

Where a chain is given by its changes, count along the chain named. Where only a bound is given, the exact number is not on record here.

B1: Example 260 (peptide)
peptide: YXEGTXTSDXSIXLDXKAQXEFIXXLIKGGPSSGAPPPS
modifications: Aib2, αMeF(2F)6, OMeY10, αMeL13, Orn16, K17(Z), Aib20, D-Glu24, αMeY25, K28(Z), C-terminal NH2; Z = AEEA2-(γ-Glu)-CO-(CH2)12-CO2H
As for B1, the “cAMP EC50” value was 0.547 nM in experiment [1], > 9950 nM with human glucagon receptor and 0.0239 nM in experiment [2].

B2: Example 282 (peptide)
peptide: B1 peptide
modifications: Aib2, αMeF(2F)6, 2Nal10, αMeL13, Orn16, K17(Z), Aib20, D-Glu24, αMeY25, K28(Z), C-terminal NH2; Z = AEEA2-(γ-Glu)-(10-(4-carboxyphenoxy)decanoyl)
For the molecule B2, the “cAMP EC50” value is 0.216 nM in experiment [1], > 9950 nM with human glucagon receptor and 0.0193 nM in experiment [2].

B3: Example 263 (peptide)
peptide: B1 peptide with K17I, E21K
modifications: Aib2, αMeF(2F)6, OMeY10, αMeL13, Orn16, Aib20, K21(Z), D-Glu24, αMeY25, K28(Z), C-terminal NH2; Z = AEEA2-(γ-Glu)-CO-(CH2)12-CO2H
In the case of B3, the “cAMP EC50” value was 0.294 nM in experiment [1], > 9950 nM with human glucagon receptor and 0.0214 nM in experiment [2]. For the same molecule, in experiment [2], the “cAMP Emax” value is 88.6%.

B4: Example 275 (peptide)
peptide: B1 peptide with K17I, E21K
modifications: Aib2, αMeF(2F)6, 4Pal10, αMeL13, Orn16, Aib20, K21(Z), D-Glu24, αMeY25, K28(Z), C-terminal NH2; Z = AEEA2-(γ-Glu)-(10-(4-carboxyphenoxy)decanoyl)
Regarding B4, the “cAMP EC50” value in experiment [1] is 0.737 nM; with human glucagon receptor, > 9950 nM; in experiment [2], 0.0152 nM.

B5: Example 265 (peptide)
peptide: B1 peptide with E21K, K28E
modifications: Aib2, αMeF(2F)6, OMeY10, αMeL13, Orn16, K17(Z), Aib20, K21(Z), D-Glu24, αMeY25, C-terminal NH2; Z = AEEA2-CO-(CH2)12-CO2H
Regarding B5, the “cAMP EC50” value in experiment [1] is 0.262 nM; in the experiment with human glucagon receptor, > 9950 nM; in experiment [2] it was 0.0145 nM.

B6: Example 281 (peptide)
peptide: B1 peptide with E21K, K28E
modifications: Aib2, αMeF(2F)6, 2Nal10, αMeL13, Orn16, K17(Z), Aib20, K21(Z), D-Glu24, αMeY25, C-terminal NH2; Z = AEEA2-(γ-Glu)-(10-(4-carboxyphenoxy)decanoyl)
As for B6, the “cAMP EC50” value in experiment [1] is 0.252 nM; with human glucagon receptor, > 9950 nM; in experiment [2] it was 0.0187 nM.

B7: Example 262 (peptide)
peptide: B1 peptide with K17I, X24K
modifications: Aib2, αMeF(2F)6, OMeY10, αMeL13, Orn16, Aib20, K24(Z), αMeY25, K28(Z), C-terminal NH2; Z = AEEA2-(γ-Glu)-CO-(CH2)12-CO2H
Regarding B7, the figures for the “cAMP EC50” value (in experiment [1]; in the experiment with human glucagon receptor; in experiment [2]) were 0.472 nM, > 9950 nM and 0.0327 nM, respectively.

B8: Example 286 (peptide)
peptide: B1 peptide with K17I, X24K
modifications: Aib2, αMeF(2F)6, 4Pal10, αMeL13, Orn16, Aib20, K24(Z), αMeY25, K28(Z), C-terminal NH2; Z = AEEA2-(γ-Glu)-(11-(4-carboxyphenoxy)undecanoyl)
As to B8, the “cAMP EC50” value was 0.678 nM in experiment [1], > 9950 nM with human glucagon receptor and 0.0344 nM in experiment [2].

B9: Example 274 (peptide)
peptide: B1 peptide with K17I, X24K
modifications: Aib2, αMeF(2F)6, 4Pal10, αMeL13, Orn16, Aib20, K24(Z), αMeY25, K28(Z), C-terminal NH2; Z = AEEA2-(γ-Glu)-(10-(4-carboxyphenoxy)decanoyl)
As for B9, the figures for the “cAMP EC50” value (in experiment [1]; with human glucagon receptor; in experiment [2]) were 0.406 nM, > 9950 nM and 0.0226 nM, respectively.

B10: Example 278 (peptide)
peptide: B1 peptide
modifications: Aib2, αMeF(2F)6, OMeY10, αMeL13, Orn16, K17(Z), Aib20, D-Glu24, αMeY25, K28(Z), C-terminal NH2; Z = AEEA2-(γ-Glu)-(10-(4-carboxyphenoxy)decanoyl)
Regarding B10, the figures for the “cAMP EC50” value (in experiment [1]; with human glucagon receptor; in experiment [2]) were 0.29 nM, > 9950 nM and 0.0173 nM, respectively.

B11: Example 272 (peptide)
peptide: B1 peptide with E21K, K28E
modifications: Aib2, αMeF(2F)6, hTyr10, αMeL13, Orn16, K17(Z), Aib20, K21(Z), D-Glu24, αMeY25, C-terminal NH2; Z = AEEA2-CO-(CH2)12-CO2H
Regarding B11, the “cAMP EC50” value in experiment [1] is 0.388 nM; with human glucagon receptor it was > 9950 nM; in experiment [2], 0.0264 nM.

B12: Example 279 (peptide)
peptide: B1 peptide with K17I, X24K
modifications: Aib2, αMeF(2F)6, OMeY10, αMeL13, Orn16, Aib20, K24(Z), αMeY25, K28(Z), C-terminal NH2; Z = AEEA2-(γ-Glu)-(10-(4-carboxyphenoxy)decanoyl)
Turning to B12, the “cAMP EC50” value in experiment [1] was 0.406 nM; with human glucagon receptor, > 9950 nM; in experiment [2] it was 0.0305 nM.

B13: Example 266 (peptide)
peptide: B1 peptide
modifications: Aib2, αMeF(2F)6, OMeY10, αMeL13, Orn16, K17(Z), Aib20, D-Glu24, αMeY25, K28(Z), C-terminal NH2; Z = AEEA2-CO-(CH2)12-CO2H
Turning to B13, the figures for the “cAMP EC50” value (in experiment [1]; with human glucagon receptor; in experiment [2]) were 0.282 nM, > 9950 nM and 0.0136 nM, respectively. Besides, the “cAMP Emax” value in experiment [1] came to 90.5%.

B14: Example 277 (peptide)
peptide: B1 peptide with E21K, K28E
modifications: Aib2, αMeF(2F)6, OMeY10, αMeL13, Orn16, K17(Z), Aib20, K21(Z), D-Glu24, αMeY25, C-terminal NH2; Z = AEEA2-(γ-Glu)-(10-(4-carboxyphenoxy)decanoyl)
Consider B14, for which the “cAMP EC50” value was 0.225 nM in experiment [1], > 9950 nM with human glucagon receptor and 0.0176 nM in experiment [2].
